Reference: article PMC10907715, “Soluble Frizzled-related proteins promote exosome-mediated Wnt re-secretion” (Communications Biology, 2024)

How the values were obtained:
[1] = biological target: T1, FLAG-GFP-tagged mouse Wnt3a (mouse, UniProt P27467 19-352); experiment: AUC; AUC-FDS (fluorescence detection) of the culture supernatant of fluorescent Wnt-expressing cells co-cultured with sFRP-expressing or parental HEK293 cells; FluoroBrite DMEM with 8% FBS, no detergent; 20 °C, 42,000 rpm; c(s) model of SEDFIT; settings: partners not purified
T1 construct: Wnt3a, mouse; secreted into the culture supernatant; Ends of the tags are read from the order of the printed name; also called GFP-Wnt3a; FLAG-GFP-Wnt3a; source: L cells stably expressing it, secreted into the culture supernatant (not purified); not shown: GFP, N-terminal, kept
T1 sequence (P27467 19-352): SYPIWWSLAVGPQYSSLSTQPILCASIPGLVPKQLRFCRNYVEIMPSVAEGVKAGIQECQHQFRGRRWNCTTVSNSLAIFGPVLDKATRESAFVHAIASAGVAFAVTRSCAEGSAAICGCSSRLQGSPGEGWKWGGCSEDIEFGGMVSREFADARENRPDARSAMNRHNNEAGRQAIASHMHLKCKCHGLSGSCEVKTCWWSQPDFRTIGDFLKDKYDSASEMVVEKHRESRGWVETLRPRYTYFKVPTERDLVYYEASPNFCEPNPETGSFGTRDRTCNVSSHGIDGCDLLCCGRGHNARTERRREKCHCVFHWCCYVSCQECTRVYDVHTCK

[2] = biological target: T2, FLAG-mClover-mouse Wnt5a (mouse, UniProt P22725 62-380); experiment: as above; settings: partners not purified
T2 construct: Wnt5a, mouse; secreted into the culture supernatant; Ends of the tags are read from the order of the printed name; also called mClover-Wnt5a; mClover-tagged Wnt5a; source: HEK293 cells stably expressing it (CMV promoter), secreted into the culture supernatant (not purified); not shown: mClover, N-terminal, kept
T2 sequence (looked up): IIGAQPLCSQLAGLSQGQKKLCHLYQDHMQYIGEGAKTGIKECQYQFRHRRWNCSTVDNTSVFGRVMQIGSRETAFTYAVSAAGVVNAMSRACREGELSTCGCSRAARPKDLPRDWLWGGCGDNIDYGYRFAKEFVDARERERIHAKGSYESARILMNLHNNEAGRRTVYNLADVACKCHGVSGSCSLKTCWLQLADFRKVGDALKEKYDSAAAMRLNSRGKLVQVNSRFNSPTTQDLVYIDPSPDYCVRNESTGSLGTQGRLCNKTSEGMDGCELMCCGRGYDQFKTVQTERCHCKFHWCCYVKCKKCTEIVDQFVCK

stoichiometry N [1]: 1
stoichiometry N [2]: 1
B1: mouse sFRP2-FLAG (natural protein, UniProt P97299 25-295, looked up)
chain: LFLFGQPDFSYKRSNCKPIPANLQLCHGIEYQNMRLPNLLGHETMKEVLEQAGAWIPLVMKQCHPDTKKFLCSLFAPVCLDDLDETIQPCHSLCVQVKDRCAPVMSAFGFPWPDMLECDRFPQDNDLCIPLASSDHLLPATEEAPKVCEACKTKNEDDNDIMETLCKNDFALKIKVKEITYINRDTKIILETKSKTIYKLNGVSERDLKKSVLWLKDSLQCTCEEMNDINAPYLVMGQKQGGELVITSVKRWQKGQREFKRISRSIRKLQC
notes: sFRP2 (secreted Frizzled-related protein 2), mouse; secreted into the culture supernatant; End of the tag is read from the order of the printed name; also called secreted Frizzled-related protein 2; source: HEK293 cells stably expressing it, secreted into the culture supernatant (not purified)
